The text below walks through data of PMC3770802 (Cytokine, 2013).

For one assay, the target named is T1, IL-10R2/StFP (human, UniProt Q08334 20-325).
T1 sequence (looked up): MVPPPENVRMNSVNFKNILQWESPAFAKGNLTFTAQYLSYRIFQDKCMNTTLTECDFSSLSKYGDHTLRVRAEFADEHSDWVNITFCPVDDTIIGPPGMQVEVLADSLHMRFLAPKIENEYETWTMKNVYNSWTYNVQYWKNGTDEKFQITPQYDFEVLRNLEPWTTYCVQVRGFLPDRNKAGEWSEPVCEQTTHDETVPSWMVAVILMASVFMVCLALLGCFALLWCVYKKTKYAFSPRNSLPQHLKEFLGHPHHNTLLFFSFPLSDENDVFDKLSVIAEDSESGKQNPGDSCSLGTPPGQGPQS
Description: FRET or BRET.

The next assay has as its target T2, IFN-αR2c/ECFP (human, UniProt P48551 27-515).
T2 sequence (looked up): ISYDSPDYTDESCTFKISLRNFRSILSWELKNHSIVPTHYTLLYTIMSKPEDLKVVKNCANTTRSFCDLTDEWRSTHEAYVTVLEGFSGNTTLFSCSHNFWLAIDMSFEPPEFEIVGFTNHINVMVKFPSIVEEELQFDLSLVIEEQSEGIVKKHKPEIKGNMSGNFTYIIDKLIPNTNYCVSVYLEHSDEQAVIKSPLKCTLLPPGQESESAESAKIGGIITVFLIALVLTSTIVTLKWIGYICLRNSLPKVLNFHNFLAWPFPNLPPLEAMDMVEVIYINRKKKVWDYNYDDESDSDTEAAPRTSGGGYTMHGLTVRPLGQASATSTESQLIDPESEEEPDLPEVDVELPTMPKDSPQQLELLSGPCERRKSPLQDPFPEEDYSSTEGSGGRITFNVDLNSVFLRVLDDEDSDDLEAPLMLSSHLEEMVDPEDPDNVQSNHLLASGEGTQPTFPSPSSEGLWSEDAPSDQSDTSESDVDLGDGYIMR
Description: FRET or BRET.

B1: IFN-λR1/CiFP (receptor, human, UniProt Q8IU57 21-520, looked up)
chain: RPRLAPPQNVTLLSQNFSVYLTWLPGLGNPQDVTYFVAYQSSPTRRRWREVEECAGTKELLCSMMCLKKQDLYNKFKGRVRTVSPSSKSPWVESEYLDYLFEVEPAPPVLVLTQTEEILSANATYQLPPCMPPLDLKYEVAFWKEGAGNKTLFPVTPHGQPVQITLQPAASEHHCLSARTIYTFSVPKYSKFSKPTCFLLEVPEANWAFLVLPSLLILLLVIAAGGVIWKTLMGNPWFQRAKMPRALDFSGHTHPVATFQPSRPESVNDLFLCPQKELTRGVRPTPRVRAPATQQTRWKKDLAEDEEEEDEEDTEDGVSFQPYIEPPSFLGQEHQAPGHSEAGGVDSGRPRAPLVPSEGSSAWDSSDRSWASTVDSSWDRAGSSGYLAEKGPGQGPGGDGHQESLPPPEFSKDSGFLEELPEDNLSSWATWGTLPPEPNLVPGGPPVSLQTLTFCWESSPEEEEEARESEIEDSDAGSWGAESTQRTEDRGRTLGHYMAR
In the case of B1, in the assay with IL-10R2/StFP, the “EC50* (relative)” value came out at 200 pairs/cell and the “EC50* (relative), rarely seen” value is 70 pairs/cell.

B2: IFN-αR1/EYFP (receptor, human, UniProt P17181 28-557, looked up)
chain: KNLKSPQKVEVDIIDDNFILRWNRSDESVGNVTFSFDYQKTGMDNWIKLSGCQNITSTKCNFSSLKLNVYEEIKLRIRAEKENTSSWYEVDSFTPFRKAQIGPPEVHLEAEDKAIVIHISPGTKDSVMWALDGLSFTYSLVIWKNSSGVEERIENIYSRHKIYKLSPETTYCLKVKAALLTSWKIGVYSPVHCIKTTVENELPPPENIEVSVQNQNYVLKWDYTYANMTFQVQWLHAFLKRNPGNHLYKWKQIPDCENVKTTQCVFPQNVFQKGIYLLRVQASDGNNTSFWSEEIKFDTEIQAFLLPPVFNIRSLSDSFHIYIGAPKQSGNTPVIQDYPLIYEIIFWENTSNAERKIIEKKTDVTVPNLKPLTVYCVKARAHTMDEKLNKSSVFSDAVCEKTKPGNTSKIWLIVGICIALFALPFVIYAAKVFLRCINYVFFPSLKPSSSIDEYFSEQPLKNLLLSTSEEQIEKCFIIENISTIATVEETNQTDEDHKKYSSQTSQDSGNYSNEDESESKTSEELQQDFV
B2: the “EC50* (relative), rarely seen” value with IFN-αR2c/ECFP came to 4 pairs/cell.
